Measurements taken from patent CN116253795A (SUN YAT SEN UNIV CANCER CENTER SUN YAT SEN UNIV AFFILIATED …, dated 2023).

What was measured:
[1] = molecular target: T1, gHgL胞外域全长蛋白 (recombinant single-chain EBV gL-linker-gH ectodomain with 6xHis, SEQ ID NO.12) (Epstein-Barr virus, M81 strain …); assay: ELISA, gHgL protein coated at 2 ug/mL, antibody titrated
T1 construct: not shown: 6xHis tag

[2] = molecular target: T2, P9肽 (biotinylated 20-mer peptide of gL, aa 104-123) (Epstein-Barr virus, M81 strain, N-terminal biotin); assay: ELISA, biotinylated peptide on streptavidin plate, antibody 1 ug/mL
T2 peptide: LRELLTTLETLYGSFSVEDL

[3] = molecular target: T1, gHgL胞外域全长蛋白 (recombinant single-chain …); assay: SPR, Biacore 8K, antibody captured on Protein A chip, gHgL as analyte 3.125-200 nM

B1: 兔源单克隆抗体10E4 (rabbit monoclonal antibody 10E4) (antibody, V domains shown)
VH: QQVKESGGRLVTPGTPLTLTCTASGFSLSTYWMSWVRQAPGKGLEYIGVIGGSGSTYYASWAKGRFTISKTSTTVDLKITSPTTEDTATYFCARDSGAGVRFRFWGPGTLVTVSS
VL: DLVMTQTPASVEAGVGGTVTINCQASENIGSRLAWYQQKPGQPPKLLIYRASTLESGVPSRFKGSGSGTEFTLTISDLECADAATYYCQCTYGVSITINYGNDFGGGTEVVVKG
notes: also called 单抗10E4
EC50 [1]: 0.0335 µg/mL | binding result [2]: binds | Kd [3]: 3.53 nM
